T1: Hrr25 1-394, nonphosphorylated (Saccharomyces cerevisiae (budding yeast), UniProt P29295 1-394)
T1 construct: pETM11 with a TEV cleavage site after the tag; also called P/Q truncation; truncation variant lacking the P/Q-rich region; source: E. coli pRARE cells, purified (NiNTA, gel filtration)
T1 sequence (looked up): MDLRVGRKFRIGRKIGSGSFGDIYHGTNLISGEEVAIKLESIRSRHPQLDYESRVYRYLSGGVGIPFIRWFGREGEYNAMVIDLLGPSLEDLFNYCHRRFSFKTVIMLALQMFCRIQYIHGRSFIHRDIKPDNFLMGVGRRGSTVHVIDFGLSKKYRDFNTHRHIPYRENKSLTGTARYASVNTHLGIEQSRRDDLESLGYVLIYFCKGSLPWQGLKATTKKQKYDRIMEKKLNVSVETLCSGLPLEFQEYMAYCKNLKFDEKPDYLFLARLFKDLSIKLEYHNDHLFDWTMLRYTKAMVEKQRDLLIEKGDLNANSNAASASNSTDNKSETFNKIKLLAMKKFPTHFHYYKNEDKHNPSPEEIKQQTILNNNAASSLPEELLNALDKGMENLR

T2: GST-Elp1 1-734 (Saccharomyces cerevisiae (budding yeast), UniProt Q06706 1-734)
T2 construct: also called truncated form of GST-Elp1
T2 sequence (looked up): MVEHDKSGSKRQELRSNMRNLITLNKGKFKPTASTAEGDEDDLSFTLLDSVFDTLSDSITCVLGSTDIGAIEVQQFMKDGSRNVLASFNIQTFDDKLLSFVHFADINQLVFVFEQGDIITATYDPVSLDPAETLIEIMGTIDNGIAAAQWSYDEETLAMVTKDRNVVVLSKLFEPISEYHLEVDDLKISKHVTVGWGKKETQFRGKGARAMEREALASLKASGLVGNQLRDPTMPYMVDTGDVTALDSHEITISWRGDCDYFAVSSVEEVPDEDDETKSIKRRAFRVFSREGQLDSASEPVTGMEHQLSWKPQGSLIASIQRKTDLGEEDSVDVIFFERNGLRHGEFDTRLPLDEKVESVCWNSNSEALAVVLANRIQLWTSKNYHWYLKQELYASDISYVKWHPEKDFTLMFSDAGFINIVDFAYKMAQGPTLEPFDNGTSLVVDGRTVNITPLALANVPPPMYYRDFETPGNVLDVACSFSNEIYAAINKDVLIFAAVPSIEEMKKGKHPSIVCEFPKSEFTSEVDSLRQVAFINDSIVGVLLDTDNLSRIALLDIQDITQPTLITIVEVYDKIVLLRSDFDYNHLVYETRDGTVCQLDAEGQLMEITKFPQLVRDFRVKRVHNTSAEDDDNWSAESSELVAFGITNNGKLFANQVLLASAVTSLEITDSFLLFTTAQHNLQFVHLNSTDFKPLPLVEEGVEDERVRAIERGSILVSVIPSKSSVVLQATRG

T3: FL GST-Elp1 (Saccharomyces cerevisiae (budding yeast), UniProt Q06706 1-1349)
T3 construct: Elp1, Elongator subunit of Saccharomyces cerevisiae, full length, expressed from the pETM30 vector; also called Elongator subunit Elp1
T3 sequence (looked up): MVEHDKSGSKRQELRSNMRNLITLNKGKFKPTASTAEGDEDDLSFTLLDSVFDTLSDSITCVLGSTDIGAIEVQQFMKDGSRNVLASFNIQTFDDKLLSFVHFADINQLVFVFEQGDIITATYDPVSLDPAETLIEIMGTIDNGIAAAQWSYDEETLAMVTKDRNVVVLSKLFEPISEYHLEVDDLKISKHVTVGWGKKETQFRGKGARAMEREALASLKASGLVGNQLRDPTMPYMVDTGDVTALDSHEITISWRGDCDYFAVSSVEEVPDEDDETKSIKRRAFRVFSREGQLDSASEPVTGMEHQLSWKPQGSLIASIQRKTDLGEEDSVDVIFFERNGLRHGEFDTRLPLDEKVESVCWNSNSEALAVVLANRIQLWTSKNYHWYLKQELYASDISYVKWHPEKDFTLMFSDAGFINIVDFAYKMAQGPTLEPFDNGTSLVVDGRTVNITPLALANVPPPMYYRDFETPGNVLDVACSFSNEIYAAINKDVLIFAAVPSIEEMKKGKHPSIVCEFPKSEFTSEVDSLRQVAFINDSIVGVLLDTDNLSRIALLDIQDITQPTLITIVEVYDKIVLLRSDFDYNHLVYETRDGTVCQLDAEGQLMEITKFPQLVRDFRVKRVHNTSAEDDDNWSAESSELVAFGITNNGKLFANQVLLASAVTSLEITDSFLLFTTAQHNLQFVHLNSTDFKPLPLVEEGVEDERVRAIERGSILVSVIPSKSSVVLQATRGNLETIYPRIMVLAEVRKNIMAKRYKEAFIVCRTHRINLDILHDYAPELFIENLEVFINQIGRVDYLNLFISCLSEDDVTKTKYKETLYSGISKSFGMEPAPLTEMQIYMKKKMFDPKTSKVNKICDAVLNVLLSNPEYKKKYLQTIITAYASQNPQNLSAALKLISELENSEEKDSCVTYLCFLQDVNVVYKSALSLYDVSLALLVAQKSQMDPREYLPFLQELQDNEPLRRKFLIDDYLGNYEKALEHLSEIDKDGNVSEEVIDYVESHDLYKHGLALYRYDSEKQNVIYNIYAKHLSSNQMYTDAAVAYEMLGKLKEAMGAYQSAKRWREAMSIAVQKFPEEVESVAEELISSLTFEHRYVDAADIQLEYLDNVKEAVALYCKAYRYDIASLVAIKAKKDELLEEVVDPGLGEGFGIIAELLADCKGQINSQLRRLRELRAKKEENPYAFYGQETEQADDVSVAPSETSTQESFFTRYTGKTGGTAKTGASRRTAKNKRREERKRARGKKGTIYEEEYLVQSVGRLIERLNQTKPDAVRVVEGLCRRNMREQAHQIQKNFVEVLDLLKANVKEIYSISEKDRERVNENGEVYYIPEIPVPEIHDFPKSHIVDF

B1: GST-tagged Sit4 (enzyme, Saccharomyces cerevisiae (budding yeast), UniProt P20604 1-311, looked up)
chain: MVSRGPDEWLETIKKCQALTENEMKQLCEMVKELLMEESNIQPVQTPVTVCGDIHGQFHDLLELFRTAGGFPDDINYIFLGDYVDRGYYSLETFTLLMCLKVKYPAKITLVRGNHESRQITQVYGFYEECLNKYGSTTVWKYCCQVFDFLTLAAIIDGKILCVHGGLSPEIRMLDQIRVLSRAQEVPHEGGFSDLLWSDPDNVEAWQVSPRGAGWLFGSKVAREFNHVNGLNLIARAHQLVMEGFKYHFPEKDVVTVWSAPNYCYRCGNVASVMKVDEDLEPTFKIFSAVPDDYIRESTANHNNQRAGYFL
notes: Sit4, phosphatase of Saccharomyces cerevisiae, expressed from the pETM30 vector; also called GST-Sit4; Sit4 phosphatase
B2: Hrr25 1-394, autophosphorylated (domain or fragment, Saccharomyces cerevisiae (budding yeast), UniProt P29295 1-394, looked up)
chain: T1 sequence (looked up)
modifications: autophosphorylation sites mapped by MS: the sites detected in full length Hrr25 (Thr27, Ser31, Ser143, Thr144, Ser181, Ser191, Ser198) and in addition Ser41, Ser44, Ser60, Ser153, Thr161, Ser236, Thr239, Ser242, Tyr266, Ser317, Thr326, Ser330, Thr346, Ser376
notes: source: E. coli pRARE cells, purified (NiNTA, gel filtration); incubated with 1 mM ATP for 1 h at 30°C
B3: full-length (FL) yeast Hrr25, nonphosphorylated (enzyme, Saccharomyces cerevisiae (budding yeast), UniProt P29295 1-494, looked up)
chain: MDLRVGRKFRIGRKIGSGSFGDIYHGTNLISGEEVAIKLESIRSRHPQLDYESRVYRYLSGGVGIPFIRWFGREGEYNAMVIDLLGPSLEDLFNYCHRRFSFKTVIMLALQMFCRIQYIHGRSFIHRDIKPDNFLMGVGRRGSTVHVIDFGLSKKYRDFNTHRHIPYRENKSLTGTARYASVNTHLGIEQSRRDDLESLGYVLIYFCKGSLPWQGLKATTKKQKYDRIMEKKLNVSVETLCSGLPLEFQEYMAYCKNLKFDEKPDYLFLARLFKDLSIKLEYHNDHLFDWTMLRYTKAMVEKQRDLLIEKGDLNANSNAASASNSTDNKSETFNKIKLLAMKKFPTHFHYYKNEDKHNPSPEEIKQQTILNNNAASSLPEELLNALDKGMENLRQQQPQQQVQSSQPQPQPQQLQQQPNGQRPNYYPEPLLQQQQRDSQEQQQQVPMATTRATQYPPQINSNNFNTNQASVPPQMRSNPQQPPQDKPAGQSIWL
notes: cloned into pFastBacHT A with a TEV cleavage site after the tag; also called FL Hrr25; Hrr25 WT; source: Trichoplusia ni High Five cells, purified (NiNTA, gel filtration)
B4: full-length (FL) yeast Hrr25, autophosphorylated (enzyme, Saccharomyces cerevisiae (budding yeast), UniProt P29295 1-494, looked up)
chain: B3 chain
modifications: autophosphorylation sites mapped by MS: phospho-Thr27, Ser31, Ser143, Thr144, Ser181, Ser191, Ser198, Ser438, Thr449, Thr453, Ser461, Ser470, Ser491
notes: Hrr25, casein kinase 1 of Saccharomyces cerevisiae, full length, after autophosphorylation with ATP; also called pHrr25; autophosphorylated FL kinase; source: Trichoplusia ni High Five cells, purified (NiNTA, gel filtration); incubated with 1 mM ATP for 1 h at 30°C

Assays:
Experiment in all cases: pull-down; 20 μg GST-tagged bait mixed with equimolar Hrr25 variant, GST Sepharose 4B, 1 h at 4°C; 20 mM Tris pH 7.5, 150 mM NaCl, 0.5% Tween 20, 2 mM DTT, 2 mM MgCl2; three washes; SDS-PAGE and WB with Hrr25-specific antibodies
Conditions in all cases: both partners purified
[1] = target: T1, Hrr25 1-394, nonphosphorylated
[2] = target: B3
GST-Elp1 1-734 = target: T2, GST-Elp1 1-734
FL GST-Elp1 = target: T3, FL GST-Elp1

Binder: B1
binding result [1]: binds
binding result [2]: binds

Binder: B2
binding result (GST-Elp1 1-734): binds

Binder: B3
binding result (FL GST-Elp1): binds

Binder: B4
binding result (FL GST-Elp1): binds
